The results in this text go back to US20170168078A1.

For assay [1], the target named is human folate receptor delta (FRΔ) expressed on CHO cells (human) (UniProt A6ND01). Nature of the assay: flow cytometry on cells expressing FRΔ, antibody 1 µg/mL (parental CHOK1: 5.9).
The target is the same in assay [2]. Nature of the assay: flow cytometry on cells expressing FRΔ, antibody 1 µg/mL (parental CHOK1: 5.7). For orientation: A flow cytometer gives signals particle by particle.

Sequence of human folate receptor delta (FRΔ) expressed on CHO cells (human) (A6ND01 20-228, stated change not applied): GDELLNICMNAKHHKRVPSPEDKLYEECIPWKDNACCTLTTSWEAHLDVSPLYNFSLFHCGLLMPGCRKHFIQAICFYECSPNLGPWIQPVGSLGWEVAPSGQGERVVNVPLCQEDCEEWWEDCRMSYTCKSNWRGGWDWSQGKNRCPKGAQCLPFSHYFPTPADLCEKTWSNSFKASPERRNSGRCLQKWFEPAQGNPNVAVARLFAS

B1: Monoclonal antibody 24F12.B1 (antibody, mouse IgG1, V domains shown)
VH: SGGGLVRPGGSLKLSCAASGFTFSSYAMSWVRQSPEKRLEWVAEIGSGGSYTYYPDTVTGRFTISRDNAKSTLYLEMSSLRSEDTAIYYCARETTAGYFDYWGQGTTLTVSS
VL: TSSLSASLGDRVTISCSASQGINNFLNWYQQKPDGTVKLLIYYTSSLHSGVPSRFSGSGSGTDYSLTISNLEPEDIAIYYCQHFSKLPWTFGGGTKLEIKR
Consider B1, for which, in assay [1], the Geometric Mean came to 5.9.

B2: Monoclonal antibody 26B3.F2 (antibody, mouse IgG1, V domains shown)
VH: GPELVKPGASVKISCKASDYSFTGYFMNWVMQSHGKSLEWIGRIFPYNGDTFYNQKFKGRATLTVDKSSSTAHMELRSLASEDSAVYFCARGTHYFDYWGQGTTLTVSS
VL: PASLSASVGETVTITCRTSENIFSYLAWYQQKQGISPQLLVYNAKTLAEGVPSRFSGSGSGTQFSLKINSLQPEDFGSYYCQHHYAFPWTFGGGSKLEIKR
As to B2, the Geometric Mean in assay [2] came out at 5.4.

B3: Monoclonal antibody 9F3.H9.H3.H3.B5.G2 (antibody, mouse IgG2a, V domains shown)
VH: ESGPGLVRPSQSLSLTCSVTGYSITSGYYWNWIRQFPGSRLEWMGYIKSDGSNNYNPSLKNRISITRDTSKNQFFLKLNSVTTEDTATYFCTREWKAMDYWGQGTSVTVSS
VL: PAIMSASPGEKVTMTCRASSTVSYSYLHWYQQKSGASPQLWIYGTSNLASGVPARFSGSGSGTSYSLTISSVEAEDAATYYCQQYSGYPLTFGAGTKLELKR
B3: in assay [1], the Geometric Mean came to 5.6.
